Assay [1] deals with T1, ApoEch peptide KLH-CTEELRVSLASHLRK-CONH2 (human, not fully specified; C-terminal amide (CONH2); printed with KLH on the added N-terminal cysteine).
T1 construct: also called Mut peptide; mutant ApoE peptide
T1 peptide: CTEELRVSLASHLRK
Briefly: ELISA, parental hybridoma clone. For orientation: An ELISA detects its analyte on a solid surface through an enzyme-linked reagent.

Assay [2] addresses T2, full-length wild type human ApoE3 recombinant protein (His-tagged) (human, UniProt P02649 19-317).
T2 construct: Recombinant protein from Innovagen; also called ApoE3 WT full-length protein; APOE3 WT; not shown: histidine tag
As to the kind of experiment: ELISA, parental hybridoma clone.

The target in assay [3] is T3, full-length ApoE3ch (ApoE3 Christchurch R136S) mutant recombinant protein (His-tagged) (human, UniProt P02649 19-317).
T3 construct: also called ApoE3ch full length protein; APOE3ch Mutant; not shown: histidine tag
T3 sequence (P02649 19-317 R154S): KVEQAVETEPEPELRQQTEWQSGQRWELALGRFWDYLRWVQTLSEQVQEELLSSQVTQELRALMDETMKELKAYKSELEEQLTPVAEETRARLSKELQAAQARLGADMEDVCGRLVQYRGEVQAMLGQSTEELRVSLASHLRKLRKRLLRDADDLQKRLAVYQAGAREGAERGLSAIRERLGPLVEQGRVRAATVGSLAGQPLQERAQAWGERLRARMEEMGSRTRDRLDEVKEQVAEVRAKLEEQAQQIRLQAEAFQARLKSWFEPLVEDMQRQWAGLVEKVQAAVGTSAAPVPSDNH
As to the kind of experiment: ELISA, parental hybridoma clone.

For assay [4], the target named is T4, wild type ApoE peptide KLH-CTEELRVRLASHLRK-CONH2 (human, not fully specified; C-terminal amide (CONH2); printed with KLH on the added N-terminal cysteine).
T4 construct: also called WT peptide; ApoE3 WT peptide
T4 peptide: CTEELRVRLASHLRK
As to the kind of experiment: ELISA, parental hybridoma clone.

Assay [5] deals with T3, full-length ApoE3ch (ApoE3 Christchurch …). Briefly: ELISA of 1H4-2 subclone serum on ApoE3ch full length protein, O.D. 450 nm against dilution factor.
Assay [6] concerns the target T2, full-length wild type human ApoE3 …. Briefly: BLI (BLItz), mAb 1H4 on protein A biosensor, run with 71.43 nM ApoE3, global fit; columns shifted: value stands under 'Ka Error' but is the kd (0.04142/2900000 = 14.28 nM). As for the experimental part: (§1) The binding affinity between ApoE3 and the monoclonal antibody 1H4 (mAb 1H4) was determined using the advanced kinetic module of the BLItz system (Blitz Pro, FB-609928, ver. 1.3.1.3). Briefly, a protein A biosensor was loaded with mAb 1H4 and both association and dissociation constants were determined at increasing concentrations of the full length ApoE3 protein (Innovagen) from 0 to 571.4 nM. The following running settings were used: 30 s initial baseline in the experimental media, 120 s loading of the ligand (mAb 1H4) on the biosensors, 30 s new baseline before association (120 s) and dissociation (120 s) steps. A total of 6 runs of 420 s at 2200 rpm and room temperature were conducted to determine the binding parameters of ApoE3. Global fitting and step corrections of the dissociation experiments were performed using the BLItz software (ver. 1.1.0.7). […] KD, Ka and Kd were measured (table 10) and calculated using the BLItz system. Top panel is representative of the association steps, the bottom panel is representative of the dissociation steps of the binding kinetic. The X and Y axes depicts time in second and binding in nM, respectively.

The target is the same in assay [7]. Briefly: BLI (BLItz), mAb 1H4 on protein A biosensor, run with 71.43 nM ApoE3, global fit. The procedure:
as §1

For assay [8], the target named is T1, ApoEch peptide KLH-CTEELRVSLASHLRK-CONH2. As to the kind of experiment: ELISA of 1H4-2 subclone serum on ApoE3ch peptide, O.D. 450 nm against dilution factor.
The target of assay [9] is T2, full-length wild type human ApoE3 …. As to the kind of experiment: BLI (BLItz), mAb 1H4 on protein A biosensor, run with 35.71 nM ApoE3, global fit. As for the experimental part: as §1
Assay [10] has the same target. Briefly: BLI (BLItz), mAb 1H4 on protein A biosensor, run with 142.9 nM ApoE3, global fit; columns shifted: value stands under 'Ka Error' but is the kd (0.04142/2900000 = 14.28 nM). As for the experimental part:
as §1

Assay [11] has the same target. Briefly: BLI (BLItz), mAb 1H4 on protein A biosensor, run with 142.9 nM ApoE3, global fit. As for the experimental part: as §1
Assay [12] shares this target. Briefly: BLI (BLItz), mAb 1H4 on protein A biosensor, run with 571.4 nM ApoE3, global fit. As for the experimental part: as §1
The target is the same in assay [13]. As to the kind of experiment: BLI (BLItz), mAb 1H4 on protein A biosensor, run with 285.7 nM ApoE3, global fit. As for the experimental part: as §1
Assay [14] shares this target. Briefly: BLI (BLItz), mAb 1H4 on protein A biosensor, run with 35.71 nM ApoE3, global fit; columns shifted: value stands under 'Ka Error' but is the kd (0.04142/2900000 = 14.28 nM). The procedure: as §1
Assay [15] has the same target. As to the kind of experiment: BLI (BLItz), mAb 1H4 on protein A biosensor, run with 285.7 nM ApoE3, global fit; columns shifted: value stands under 'Ka Error' but is the kd (0.04142/2900000 = 14.28 nM). The procedure: as §1
In a further assay the target is T5, mouse recombinant ApoE (mouse, UniProt P08226 19-311).
T5 construct: also called mouse recombinant ApoE3; msApoE
T5 sequence (looked up): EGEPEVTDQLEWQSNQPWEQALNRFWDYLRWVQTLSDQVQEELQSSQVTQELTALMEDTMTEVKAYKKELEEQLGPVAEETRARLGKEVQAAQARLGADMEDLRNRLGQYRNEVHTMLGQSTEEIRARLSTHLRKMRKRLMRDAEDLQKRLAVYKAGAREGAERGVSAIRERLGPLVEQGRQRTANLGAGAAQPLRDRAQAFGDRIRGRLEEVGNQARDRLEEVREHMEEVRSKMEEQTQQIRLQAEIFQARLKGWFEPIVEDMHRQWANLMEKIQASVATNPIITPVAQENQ
As to the kind of experiment: ELISA, His-tagged target on anti-His plate, serial antibody dilutions, anti-mouse HRP, O.D. 450 nm. As for the experimental part:
To test selectivity of the antibodies for huApoE3WT, huApoE3ch or msApoE, anti-his ELISA coated plates were incubated with 0.0025 μg/μL of the target protein for 2 h at R.T. under gentle shaking. Wells were washed 5 times with 1X wash buffer (R&D) and subsequently incubated with serial dilutions of Innovagen antibody of interest over night at 4° C. on a shaker (100 μL/well). The following day, wells were washed 5 times with sample buffer and incubated for 45 minutes using Rabbit-anti-mouse HRP-conjugated buffer (1:10,000; 100 μL/well; Abcam). After 5 more washes, plates were incubated with chromogen A+B 1:1 to initiate the colorimetric reaction (100 μL/well). The reaction was stopped with 2 N […] (R&D stop solution., 50 μL/well) and absorbance detected at 450 nm spectroscopically.

In assay [16] the target is T2, full-length wild type human ApoE3 …. Briefly: BLI (BLItz), mAb 1H4 on protein A biosensor, run with 571.4 nM ApoE3, global fit; columns shifted: value stands under 'Ka Error' but is the kd (0.04142/2900000 = 14.28 nM). The procedure: as §1

T2 sequence (P02649 19-317): as the sequence (P02649 19-317 R154S) above, with S136R counted along it

B1: antibody 1H4-2 (antibody, V domains shown)
VH: EVKLVESGGGVVQPGGSLKLSCAASGFTFSSYTMSWVRQTPEKRLEWVAKIRNGGGITYYLDTLKGRFTISRDNAKNTLYLQMSSLKSEDTAIYFCARHYYGSEDYFDYWGQGTTLTVSS
VL: DNVLTQSPASLAVSLGQRATISCKASQSVDYDGDSYMNWYQQKPGQPPKVFIYAASNLESGIPARFSGSGSGTDFTLNIHPVEEEDAATYYCQQSNEDPWTFGGGTKLEIK
notes: also called mAb 1H4; monoclonal 1H4 antibody
Regarding B1, the “absorbance (ELISA)” value in assay [1] is 0.07 absorbance; in assay [2] it was 2.11 absorbance; in [3], 0.056 absorbance; in [4], 2.58 absorbance. Besides, the binding result in assay [5] is recorded as “no binding (tested: 1:10 dilution)”; in [8], “no binding (tested: 1:10 dilution)”; in the assay with mouse recombinant ApoE it was “no binding (tested: 1:500 dilution)”. Moreover, the koff in assay [6], in assay [10], in assay [14], in assay [15] and in assay [16] was 0.0414 s⁻¹ each time. Further, the Kd in assay [7], in [9], in [11], in [12] and in assay [13] was 0.0143 µM in each case. Further, the on-rate constant (kon) in assay [7], in assay [9], in assay [11], in [12] and in [13] was 2.9e+06 M⁻¹ s⁻¹ in each case.

One may read the koff as the rate constant with which the complex falls apart. As a reminder, the Kd is the concentration at which binding is half-saturated. As usually defined, the kon is the rate constant with which the complex forms.

The values are drawn from patent publication US20240287165A1 (GENERAL HOSPITAL, published 2024).
